Paper PMC6262623, “The Intermolecular Interaction of Ephexin4 Leads to Autoinhibition by Impeding Binding of RhoG” (Cells, 2018)

Experiments:
[1] = biological target: T1, FLAG-tagged wild-type Ephexin4 (murine, UniProt Q3U5C8 1-713); experiment: cell-based or functional assay
T1 sequence (looked up): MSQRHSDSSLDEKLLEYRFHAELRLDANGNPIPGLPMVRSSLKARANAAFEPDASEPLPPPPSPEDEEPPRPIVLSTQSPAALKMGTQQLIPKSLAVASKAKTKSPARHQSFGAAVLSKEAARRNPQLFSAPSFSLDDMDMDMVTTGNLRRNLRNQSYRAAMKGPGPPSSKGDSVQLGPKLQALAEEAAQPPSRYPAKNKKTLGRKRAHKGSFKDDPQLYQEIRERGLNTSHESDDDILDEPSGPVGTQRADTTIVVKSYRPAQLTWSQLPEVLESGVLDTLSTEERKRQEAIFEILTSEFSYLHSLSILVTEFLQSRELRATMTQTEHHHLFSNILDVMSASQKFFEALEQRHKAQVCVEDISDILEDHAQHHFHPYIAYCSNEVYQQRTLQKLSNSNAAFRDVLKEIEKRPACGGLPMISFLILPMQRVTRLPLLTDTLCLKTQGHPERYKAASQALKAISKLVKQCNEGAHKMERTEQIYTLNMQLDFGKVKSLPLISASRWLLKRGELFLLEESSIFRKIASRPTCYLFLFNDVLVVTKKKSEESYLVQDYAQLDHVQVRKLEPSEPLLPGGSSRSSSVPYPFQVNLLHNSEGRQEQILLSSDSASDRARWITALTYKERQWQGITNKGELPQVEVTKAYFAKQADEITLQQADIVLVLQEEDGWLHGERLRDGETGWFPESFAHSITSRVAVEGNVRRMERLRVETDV

[2] = biological target: T2, FLAG-tagged Ephexin4^E295A (murine, UniProt Q3U5C8 1-713, E295A); experiment: cell-based or functional assay
T2 sequence (looked up): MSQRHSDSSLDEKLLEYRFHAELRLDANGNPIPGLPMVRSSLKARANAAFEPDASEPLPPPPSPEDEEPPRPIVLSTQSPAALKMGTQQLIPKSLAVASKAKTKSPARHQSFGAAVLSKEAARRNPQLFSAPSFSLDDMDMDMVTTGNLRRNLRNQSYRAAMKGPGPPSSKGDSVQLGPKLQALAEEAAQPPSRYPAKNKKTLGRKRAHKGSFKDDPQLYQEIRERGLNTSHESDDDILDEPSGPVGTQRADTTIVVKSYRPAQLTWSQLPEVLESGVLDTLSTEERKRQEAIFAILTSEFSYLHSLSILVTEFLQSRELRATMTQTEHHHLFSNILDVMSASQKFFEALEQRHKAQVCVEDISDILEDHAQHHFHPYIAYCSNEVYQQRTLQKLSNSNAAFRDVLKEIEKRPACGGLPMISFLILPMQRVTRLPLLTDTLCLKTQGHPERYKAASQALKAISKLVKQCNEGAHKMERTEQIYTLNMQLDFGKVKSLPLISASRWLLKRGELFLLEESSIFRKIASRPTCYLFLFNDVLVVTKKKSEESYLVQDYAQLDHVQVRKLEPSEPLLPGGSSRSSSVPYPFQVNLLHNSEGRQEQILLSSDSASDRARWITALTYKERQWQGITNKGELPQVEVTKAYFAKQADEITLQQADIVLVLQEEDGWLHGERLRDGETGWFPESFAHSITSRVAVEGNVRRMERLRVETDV

level of active (GTP-bound) RhoG precipitated by GST-Elmo2^N-term from 293T cells expressing wild-type Ephexin4, against control cells (Figure 3a,b) [1]: 1.6 fold
level of active endogenous RhoG (293T) precipitated by GST-Elmo2^N-term from cells expressing wild-type Ephexin4 (Figure 3c,d) [1]: 1.6 fold
level of active (GTP-bound) RhoG precipitated by GST-Elmo2^N-term from 293T cells expressing Ephexin4^E295A, against control cells (Figure 3a,b) [2]: 2.9 fold
level of active endogenous RhoG (293T) precipitated by GST-Elmo2^N-term from cells expressing Ephexin4^E295A (Figure 3c,d) [2]: 2.6 fold
B1: GFP-RhoG (natural protein)
chain: not shown
